This is an account of results in US20220227815A1, “COMPOSITIONS AND METHODS USEFUL IN TREATING BRAIN DISEASES” (University of Kansas, priority 2019, published 2022).

Data set [1] relates to EGR1, ARC, and MAPK1 mRNA transcripts. The data set can be described thus: Fluorescence in situ hybridization of mRNA transcripts in APP/PS1 hippocampus CA1. Conditions: CA1 region of hippocampus; all three groups compared. The class given is in vivo, transgenic APP/PS1 mice. The method, then:
Coronal brain sections (10 μm thickness) were washed three times in PBS before mounting on gelatin-coated glass slides (Superfrost Plus, Thermo Fisher Scientific). Tissues were allowed to dry at RT and were then stored at −20° C. until use. Fluorescence in situ hybridization (FISH) was performed using Multiplex Reagent Kit V2 from RNAscope® Technology 2.0 (Advanced Cell Diagnostics (ACD), Hayward, Calif.). See Vasquez, J. J., Hussien, R., Aguilar-Rodriguez, B., Junger, H., Dobi, D., Henrich, T. J., Thanh, C., Gibson, E., Hogan, L. E., McCune, J., Hunt, P. W., Stoddart, C. A.,Laszik, Z. G., Elucidating the Burden of HIV in Tissues Using Multiplexed Immunofluorescence and In Situ Hybridization: Methods for the Single-Cell Phenotypic Characterization of Cells Harboring HIV In Situ. J Histochem Cytochem 2018; 66:427-46; Gershon, T. R., Crowther, A. J., Liu, H., Miller, C. R.,Deshmukh, M., Cerebellar granule neuron progenitors are the source of Hk2 in the postnatal cerebellum. Cancer Metab 2013; 1:15; and Smith, P. A., Schmid, C., Zurbruegg, S., Jivkov, M., Doelemeyer, A., Theil, D., Dubost, V., Beckmann, N., Fingolimod inhibits brain atrophy and promotes brain-derived neurotrophic factor in an animal model of multiple sclerosis. J Neuroimmunol 2018; 318:103-13. Mounted tissue sections were deparaffinized using xylene and serially dehydrated in 50%, 70%, 95%, and 100% ethanol for 5 min each. […]

The test system of another data set is amyloid beta plaques. The data set can be described thus: Amyloid beta plaque load in hippocampus, Congo red staining. The format is in vivo, transgenic APP/PS1 mice. Conditions: APP/PS1 mice; 8 injections; all three groups compared; n=5. The method, then: Animals: All animal studies were carried out under the approved animal protocol (AUS-74-11) granted by Institutional Animal Care and Use Committee (IACUC) at The University of Kansas. Animal Care Unit (ACU) personnel and veterinarians were involved in the care of the animals used in this study. Female transgenic APP/PS1 (MMRRC stock #34832-Jax) were obtained from Jackson Laboratory (Bar Harbor, Me.) and housed until at least 6 months of age. Mice received intravenous (i.v.) injections of either BDNF (5.7 nmol/kg)+ADTC5 (10 μmol/kg; n=7), BDNF alone (5.7 nmol/kg; n=6), or vehicle (n=6) every 4 days, for a total of 8 injections. At the end of the study, the mice were euthanized via CO2 inhalation and perfused with PBS immediately followed by 4% formalin fixative solution. The brains were extracted and post-fixed overnight in the perfusion-fixation solution then transferred to 70% ethanol PBS solution for paraffin embedding.
Coronal brain sections (10 μm thickness) were generated and mounted onto gelatin-coated slides (Superfrost Plus, Thermo Fisher Scientific, Waltham, Mass.). For both Aβ histology and NG2 receptor immunohistochemistry, sections were deparaffinized using xylene and serially hydrated from 95% ethanol to distilled water. […] Aβ plaque levels were quantified by counting the number of plaques from the hippocampus at 10× magnification from 5 random sections per group (n=5).

B1: BDNF: recombinant brain-derived neurotrophic factor (13 kDa monomer), Peprotech (protein, UniProt P23560 19-247, looked up)
Neurotrophic factor BDNF …: APMKEANIRGQGGLAYPGVRTHGTLESVNGPKAGSRGLTSLADTFEHVIEELLDEDQKVRPNEENNKDADLYTSRVMLSSQVPLEPPLLFLLEEYKNYLDAANMSMRVRRHSDPARRGELSVCDSISEWVTAADKKTAVDMSGGTVTVLEKVPVSKGQLKQYFYETKCNPMGYTKEGCRGIDKRHWNSQCRTTQSYVRALTMDSKKRIGWRFIRIDTSCVCTLTIKRGR
As for B1, in data set [1], the MAPK1 expression result is “no significant differences”. The “amounts of amyloid beta plaques in hippocampus” value in the data set on amyloid beta plaques is “no significant difference”.
